{"source": "paper PMC2706832", "origin": "cited, not measured here", "key": {"CCL7 (Homo sapiens)": {"molecular_target": "CCL7 (Homo sapiens) (UniProt P80098)", "sequence (P80098 24-99)": "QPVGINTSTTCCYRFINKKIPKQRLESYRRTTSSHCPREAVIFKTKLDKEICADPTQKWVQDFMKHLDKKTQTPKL"}, "[1]": {"molecular_target": "CCL14 9-74 (Homo sapiens) (UniProt Q16627)", "sequence (Q16627 9-74)": "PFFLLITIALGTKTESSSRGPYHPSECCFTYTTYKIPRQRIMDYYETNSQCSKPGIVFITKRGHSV", "experiment": "competition with CCL5"}}}
{"substance": "CCR1 (from UniProt P32246)", "values": [{"measurement": "Kd", "setting": "CCL7 (Homo sapiens)", "value": 1, "unit": "nM"}, {"measurement": "Ki", "setting": "[1]", "value": 0.023, "unit": "nM"}]}
